Measurements as given in patent US20220389077A1, “ALLOGENEIC CELL COMPOSITIONS AND METHODS OF USE” (Poseida Therapeutics, Inc., priority 2018, published 2022).
Entries after “also recorded” stand apart in the source; their conditions may differ.

Experiments:
[1] = tested on: anti-CD2 activator reagent, anti-CD2 monoclonal antibody (clone TS1/8), anti-CD2 polyclonal antibody reagent; assay: CSR CD2z mutant surface expression and staining with anti-CD2 antibody reagents in K562 cells; assay type: binding; details: 9 μg mRNA, next day
Description: FIG. 23A is a bar graph showing CSR CD2z mutant staining data. A panel of CSR CD2z mutants was designed, constructed, and tested for surface expression and binding to several anti-CD2 antibody reagents. To do so, each mutant was synthesized, subcloned into an in-house mRNA production vector, and then high-quality mRNA was produced for each. K562 cells were electroporated with 9 μg of mRNA, and surface-expression of each molecule was analyzed by flow cytometry the next day and data are shown as bar graphs. Each molecule was stained with anti-CD2 activator reagent, anti-CD2 monoclonal antibody (clone TS1/8), or anti-CD2 polyclonal antibody reagent (goat anti-human CD2).
(§1) FIG. 23C is a summary of staining and degranulation data. Data from surface-expression and binding studies, as well as those from degranulation experiments for each CSR CD2z mutant is summarized in the table.

[2] = target: T1, human CD58 (Homo sapiens, UniProt P19256); assay: T cell degranulation (CD107a) against CD58-positive cell targets; assay type: cell-based; details: 4-6 hours coculture, K562 or Rat2 cells with mRNA encoding human CD58
T1 construct: expressed in transfected cells; host or cells: K562 (electroporated) or Rat2 (lipofected) cells
T1 sequence (P19256 29-250): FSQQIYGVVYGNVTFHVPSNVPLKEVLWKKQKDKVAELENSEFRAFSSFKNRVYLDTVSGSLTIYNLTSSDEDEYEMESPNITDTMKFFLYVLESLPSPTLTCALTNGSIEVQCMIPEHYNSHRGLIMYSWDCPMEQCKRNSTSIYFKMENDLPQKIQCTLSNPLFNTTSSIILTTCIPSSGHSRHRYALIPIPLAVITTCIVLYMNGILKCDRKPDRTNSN
Description: FIG. 23B is a series of bar graphs showing CSR CD2z mutant degranulation data. The panel of CSR CD2z mutants was tested for the capability of mediating degranulation against CD58-positive cell targets. T cell degranulation is a surrogate of T cell killing that can be measured by FACS staining for intracellular CD107a expression following coculture with target cell lines expressing target antigen. Specifically, pan T cells from normal blood donors were stimulated with anti-CD3/anti-CD28 beads in standard T cell culture media, then rested. These cells were then electroporated (BTX ECM 830 electroporator @ 500V for 700 μs) with 9 μg of mRNA expressing CSR CD2z mutants and cultured overnight. The next day, the cells were cocultured for 4-6 hours in the presence of various target cell lines. Positive target cell lines included K562 cells or Rat2 cells that were electroporated or lipofected, respectively, with mRNA encoding human CD58, while negative controls were either Rat2 cells that were not electroporated or CSR CD2z mutant expressing T cells alone.
as §1
FIG. 23D is a series of flow cytometry plots showing the expression of CD48, CD58 or CD59 on K562 and Rat2 cells. To confirm possible ligands for the CSR WT CD2z molecule, a panel of known and suspected ligands including human CD48, CD58, and CD59 were tested. Degranulation of engineered T cells was evaluated against the cell lines K562 and Rat2 that were made to overexpress the target ligands and confirmed for expression by FACS staining. Red histograms are unstained cells and blue histograms are cells that were electroporated/lipofected with mRNA and then stained for expression of the respective marker by FACS.
FIG. 23E is a bar graph showing that CSR CD2z recognizes human CD58, but not CD48 or CD59. To confirm possible ligands for the CSR WT CD2z molecule, a panel of known and suspected ligands including human CD48, CD58, and CD59 were tested. Degranulation of engineered T cells was evaluated against the cell lines K562 and Rat2 that were made to overexpress the target ligands and confirmed for expression by FACS staining. Cells were electroporated/lipofected with mRNA and then stained for expression of the respective marker by FACS. As a control, a BCMA CAR was included as well as a K562 cell line overexpressing BCMA. In addition, T cells transfected with GFP were also included as a control. T cell degranulation is a surrogate of T cell killing that can be measured by FACS staining for intracellular CD107a expression following coculture with target cell lines expressing target antigen. Pan T cells from normal blood donors were stimulated with anti-CD3/anti-CD28 beads in standard T cell culture media, then rested. These T cells were then electroporated with mRNA expressing CSR WT CD2z, BCMA CAR, or GFP and cultured overnight. The next day, the cells were cocultured for 4-6 hours in the presence of the various target cell lines that were electroporate/lipofected with mRNA encoding human CD48, CD58 or CD59, while negative controls were either K562 or Rat2 cells that were not electroporated/lipofected, or each of the electroporated T cells alone.

[3] = tested on: Allo CAR-T cells; assay: Expansion of Allo CAR-T cells with WT or mutant (D111H) CSR CD2z; assay type: cell-based, human; details: up to 15-day culture; CSR stable or transient
Description: FIG. 24A is a bar graph showing that the delivery of CSR CD2z-D111H mutant enhances the expansion of Allo CAR-T cells. Pan T cells isolated from healthy donor blood were genetically modified using the piggyBac® DNA modification system in combination with the Cas-CLOVER™ gene-editing system (CC) for the production of allogeneic (Allo) CAR-T cells, or without CC gene-editing, as a control, for the production of autologous (Auto) CAR-T without a CSR (No CSR); auto CAR-T cells were produced by nucleofection of an mRNA encoding the super piggyBac™ transposase enzyme (SPB) and a transposon encoding a CAR, selection gene and a safety switch. […] Following EP, all cells were subsequently stimulated with a cocktail of agonist mAbs anti-CD2, anti-CD3 and anti-CD28, and were later selected for genetic modification over the course of up to a 15-day culture period using the selection gene. At the end of the initial culture period, all T cells expressed the CAR, indicating successful selection for genetically-modified cells (data not shown), and then all non-edited TCR-positive cells were depleted via negative selection to yield a population of Allo CAR-T cells that were >99% TCR-negative (data not shown).

[4] = tested on: TCRb and b2M; assay: Gene editing (knockout of TCR and MHCI) of Allo CAR-T cells with CSR; assay type: cell-based, human; details: up to 14-day culture; CSR stable or transient
Description: Pan T cells isolated from healthy donor blood were genetically modified using the piggyBac® DNA modification system in combination with the Cas-CLOVER™ gene-editing system (CC) to produce allogeneic (Allo) CAR-T cells. […] Following EP, all cells were subsequently stimulated with a cocktail of agonist mAbs anti-CD2, anti-CD3 and anti-CD28, and were later selected for genetic modification over the course of up to a 14-day culture period using the selection gene. At the end of the initial culture period, all T cells expressed the CAR, indicating successful selection for genetically-modified cells (data not shown). All samples were performed in duplicate, and data is shown in bar graph where error bars represent standard deviation.

B1: K67R/Y110D: CSR CD2z mutant within the extracellular domain of CD2 (protein)
chain: KEITNALETWGALGQDINLDIPSFQMSDDIDDIKWEKTSDKKRIAQFRKEKETFKEKDTYKLFKNGTLKIKHLKTDDQDIYKVSIDDTKGKNVLEKIFDLKIQERVSKPKISWTCINTTLTCEVMNGTDPELNLYQDGKHLKLSQRVITHKWTTSLSAKFKCTAGNKVSKESSVEPVSCPEKGLDIYLIIGICGGGSLLMVFVALLVFYITKRKKQRSRRNDEELETRAHRVATEERGRKPHQIPASTPQNPATSQHPPPPPGHRSQAPSHRPPPPGHRVQHQPQKRPPAPSGTQVHQQKGPPLPRPRVQPKPPHGAAENSLSPSSNRVKFSRSADAPAYKQGQNQLYNELNLGRREEYDVLDKRRGRDPEMGGKPRRKNPQEGLYNELQKDKMAEAYSEIGMKGERRRGKGHDGLYQGLSTATKDTYDALHMQALPPR
What does the source list for B1?
surface expression and binding of anti-CD2 staining reagents [1]: expressed on the surface and/or retain binding to the anti-CD2 activator reagent; degranulation (CD107a) against CD58 [2]: Little reactivity; degranulation (CD107a) against CD58 ([2]; listed as K67R/Y1101D): do not mediate anti-CD58 degranulation activity

B2: K67R/Q70K/Y110D/D111H: CSR CD2z mutant within the extracellular domain of CD2 (protein)
chain: KEITNALETWGALGQDINLDIPSFQMSDDIDDIKWEKTSDKKRIAKFRKEKETFKEKDTYKLFKNGTLKIKHLKTDDQDIYKVSIDHTKGKNVLEKIFDLKIQERVSKPKISWTCINTTLTCEVMNGTDPELNLYQDGKHLKLSQRVITHKWTTSLSAKFKCTAGNKVSKESSVEPVSCPEKGLDIYLIIGICGGGSLLMVFVALLVFYITKRKKQRSRRNDEELETRAHRVATEERGRKPHQIPASTPQNPATSQHPPPPPGHRSQAPSHRPPPPGHRVQHQPQKRPPAPSGTQVHQQKGPPLPRPRVQPKPPHGAAENSLSPSSNRVKFSRSADAPAYKQGQNQLYNELNLGRREEYDVLDKRRGRDPEMGGKPRRKNPQEGLYNELQKDKMAEAYSEIGMKGERRRGKGHDGLYQGLSTATKDTYDALHMQALPPR
For B2, which “degranulation (CD107a) against CD58” value [2] is on record?
Its value is “Little reactivity”.

B3: D111H: mutant CSR CD2z with D111H mutation within the CD2 extracellular domain (SEQ ID NO: 17118) (protein)
chain: MSFPCKFVASFLLIFNVSSKGAVSKEITNALETWGALGQDINLDIPSFQMSDDIDDIKWEKTSDKKKIAQFRKEKETFKEKDTYKLFKNGTLKIKHLKTDDQDIYKVSIYHTKGKNVLEKIFDLKIQERVSKPKISWTCINTTLTCEVMNGTDPELNLYQDGKHLKLSQRVITHKWTTSLSAKFKCTAGNKVSKESSVEPVSCPEKGLDIYLIIGICGGGSLLMVFVALLVFYITKRKKQRSRRNDEELETRAHRVATEERGRKPHQIPASTPQNPATSQHPPPPPGHRSQAPSHRPPPPGHRVQHQPQKRPPAPSGTQVHQQKGPPLPRPRVQPKPPHGAAENSLSPSSNRVKFSRSADAPAYKQGQNQLYNELNLGRREEYDVLDKRRGRDPEMGGKPRRKNPQEGLYNELQKDKMAEAYSEIGMKGERRRGKGHDGLYQGLSTATKDTYDALHMQALPPR
How did the “peak expansion of Allo CAR-T cells compared to Allo CAR-T cells produced without a CSR” value [3] turn out when B3 was run?
Its value is “a greater degree of expansion”.

And the “surface expression and binding of anti-CD2 staining reagents” value [1]?
Its value is “strongly bound by all staining reagents”.

And the “degranulation (CD107a) against CD58” value [2]?
The value was “Little reactivity; also recorded: completely abrogating anti-CD58 degranulation activity”.

And the “degree of gene editing compared to Allo CAR-T cells produced without a CSR” value [4]?
Its value is “a similar or greater degree of gene editing”.

B4: Delta K106-120: CSR CD2z mutant of the panel (protein)
chain: KEITNALETWGALGQDINLDIPSFQMSDDIDDIKWEKTSDKKKIAQFRKEKETFKEKDTYKLFKNGTLKIKHLKTDDQDIYIFDLKIQERVSKPKISWTCINTTLTCEVMNGTDPELNLYQDGKHLKLSQRVITHKWTTSLSAKFKCTAGNKVSKESSVEPVSCPEKGLDIYLIIGICGGGSLLMVFVALLVFYITKRKKQRSRRNDEELETRAHRVATEERGRKPHQIPASTPQNPATSQHPPPPPGHRSQAPSHRPPPPGHRVQHQPQKRPPAPSGTQVHQQKGPPLPRPRVQPKPPHGAAENSLSPSSNRVKFSRSADAPAYKQGQNQLYNELNLGRREEYDVLDKRRGRDPEMGGKPRRKNPQEGLYNELQKDKMAEAYSEIGMKGERRRGKGHDGLYQGLSTATKDTYDALHMQALPPR
B4 was tested. Which “degranulation (CD107a) against CD58” value [2] did it give?
Its value is “Little reactivity”.
